Experimental data taken from PMC3017603.
Where two headings read alike, the source gives them in different places.

Key:
[1] = molecular target: T1, Nab3-RRM(419) (Saccharomyces cerevisiae, UniProt P38996 329-419); experiment: fluorescence anisotropy
T1 sequence: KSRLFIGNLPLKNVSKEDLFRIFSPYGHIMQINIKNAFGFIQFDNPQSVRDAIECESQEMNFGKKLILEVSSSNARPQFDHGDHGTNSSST

[2] = molecular target: T1, Nab3-RRM(419); experiment: fluorescence anisotropy; remark: listed apart in the source

B1: FAM-snR47one (ssRNA)
RNA: UUCUUAUUUUUA
binding result [1]: binds

B2: FAM-wtsnR47 (ssRNA)
RNA: UUCUUAUUCUUA
binding result [2]: binds
